# Experimental data from patent US20220033454A1 (ANWITA BIOSCIENCES, published 2022).
# T1: endogenous IL-22 receptor on AsPC-1 cells (UniProt Q8N6P7 16-574, limits assumed)
# T1 sequence (looked up): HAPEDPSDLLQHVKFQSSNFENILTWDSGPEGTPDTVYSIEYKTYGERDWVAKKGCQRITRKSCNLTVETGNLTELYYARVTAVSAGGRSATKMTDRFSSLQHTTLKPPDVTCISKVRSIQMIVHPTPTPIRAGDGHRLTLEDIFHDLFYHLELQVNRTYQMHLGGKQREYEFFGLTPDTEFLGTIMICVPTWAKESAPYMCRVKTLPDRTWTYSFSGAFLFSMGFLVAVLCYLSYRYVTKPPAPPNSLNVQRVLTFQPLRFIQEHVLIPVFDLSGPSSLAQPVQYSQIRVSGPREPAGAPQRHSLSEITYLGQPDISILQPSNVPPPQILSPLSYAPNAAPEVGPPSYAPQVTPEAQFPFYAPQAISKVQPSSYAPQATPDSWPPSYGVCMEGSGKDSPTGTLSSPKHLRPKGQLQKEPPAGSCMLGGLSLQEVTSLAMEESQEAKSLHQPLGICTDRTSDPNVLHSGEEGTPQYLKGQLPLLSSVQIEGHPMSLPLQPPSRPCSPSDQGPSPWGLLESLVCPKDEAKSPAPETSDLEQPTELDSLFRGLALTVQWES
# T2: mIL22RA1-Fc fusion protein (mouse, UniProt Q80XZ4 16-230, limits assumed)
# T2 construct: also called mouse IL-22Ra 1; IL-22Rα-1; not shown: Fc part
# T2 sequence (looked up): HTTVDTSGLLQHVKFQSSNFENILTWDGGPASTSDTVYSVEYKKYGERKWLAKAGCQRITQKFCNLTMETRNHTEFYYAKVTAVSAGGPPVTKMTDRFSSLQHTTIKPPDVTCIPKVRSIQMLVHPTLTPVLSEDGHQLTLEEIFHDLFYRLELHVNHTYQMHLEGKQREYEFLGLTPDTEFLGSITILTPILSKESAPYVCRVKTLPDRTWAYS
# B1: mIL-22-anti-HSA-mIL-22 A8 (other)
# chain: LPVNTRCKLEVSNFQQPYIVNRTFMLAKEASLADNNTDVRLIGEKLFRGVSAKDQCYLMKQVLNFTLEDVLLPQSDRFQPYMQEVVPFLTKLSNQLSSCHISGDDQNIQKNVRRLKETVKKLGESGEIKAIGELDLLFMSLRNACVSGGGGSGGGGSGGGGSEVQLVESGGGLVQPGGSLRLSCAASGSTWSINTLAWYRQAPGKQRDLVARISSGGSTYYADSVKGRFTISRDNSKNTLYLQMNSLRAEDTAVYYCYAQSTWYPPSWGQGTLVTVSSGGGSGGGSGGGSGGGSLPVNTRCKLEVSNFQQPYIVNRTFMLAKEASLADNNTDVRLIGEKLFRGVSAKDQCYLMKQVLNFTLEDVLLPQSDRFQPYMQEVVPFLTKLSNQLSSCHISGDDQNIQKNVRRLKETVKKLGESGEIKAIGELDLLFMSLRNACV
# notes: Single-chain fusion with two IL-22 domains, expressed in ExpiCHO cells; also called fusion protein A8
# B2: hIL-22-anti-HSA A1 (other)
# chain: APISSHCRLDKSNFQQPYITNRTFMLAKEASLADNNTDVRLIGEKLFHGVSMSERCYLMKQVLNFTLEEVLFPQSDRFQPYMQEVVPFLARLSNRLSTCHIEGDDLHIQRNVQKLKDTVKKLGESGEIKAIGELDLLFMSLRNACISGGGGSGGGGSGGGGSEVQLVESGGGLVQPGGSLRLSCAASGSTWSINTLAWYRQAPGKQRDLVARISSGGSTYYADSVKGRFTISRDNSKNTLYLQMNSLRAEDTAVYYCYAQSTWYPPSWGQGTLVTVSS
# notes: Single-chain fusion of IL-22 and an anti-HSA VHH, expressed in ExpiCHO cells; also called fusion protein A1
# B3: Anti-HSA-mIL-22 A3 (other)
# chain: QVQLVESGGGVVQPGGSLRLSCAASGFAFRGFGMSWVRQAPGKGLEWVSSINNGGSDTYYADSVKGRFTISRDNSKNTLYLQMNSLRAEDTAVYYCAIGGPGASPSGQGTQVTVSSGGGSGGGSGGGSGGGSLPVNTRCKLEVSNFQQPYIVNRTFMLAKEASLADNNTDVRLIGEKLFRGVSAKDQCYLMKQVLNFTLEDVLLPQSDRFQPYMQEVVPFLTKLSNQLSSCHISGDDQNIQKNVRRLKETVKKLGESGEIKAIGELDLLFMSLRNACV
# notes: Single-chain fusion, expressed in ExpiCHO cells
# B4: mIL-22-anti-HSA A2 (other)
# chain: LPVNTRCKLEVSNFQQPYIVNRTFMLAKEASLADNNTDVRLIGEKLFRGVSAKDQCYLMKQVLNFTLEDVLLPQSDRFQPYMQEVVPFLTKLSNQLSSCHISGDDQNIQKNVRRLKETVKKLGESGEIKAIGELDLLFMSLRNACVSGGGGSGGGGSGGGGSEVQLVESGGGLVQPGGSLRLSCAASGSTWSINTLAWYRQAPGKQRDLVARISSGGSTYYADSVKGRFTISRDNSKNTLYLQMNSLRAEDTAVYYCYAQSTWYPPSWGQGTLVTVSS
# notes: Single-chain fusion, expressed in ExpiCHO cells; also called fusion protein A2
# B5: mIL-22-anti-HSA-mIL-22 A9 (other)
# chain: LPVNTRCKLEVSNFQQPYIVNRTFMLAKEASLADNNTDVRLIGEKLFRGVSAKDQCYLMKQVLNFTLEDVLLPQSDRFQPYMQEVVPFLTKLSNQLSSCHISGDDQNIQKNVRRLKETVKKLGESGEIKAIGELDLLFMSLRNACVSGGGGSGGGGSGGGGSQVQLVESGGGVVQPGGSLRLSCAASGFAFRGFGMSWVRQAPGKGLEWVSSINNGGSDTYYADSVKGRFTISRDNSKNTLYLQMNSLRAEDTAVYYCAIGGPGASPSGQGTQVTVSSGGGSGGGSGGGSGGGSLPVNTRCKLEVSNFQQPYIVNRTFMLAKEASLADNNTDVRLIGEKLFRGVSAKDQCYLMKQVLNFTLEDVLLPQSDRFQPYMQEVVPFLTKLSNQLSSCHISGDDQNIQKNVRRLKETVKKLGESGEIKAIGELDLLFMSLRNACV
# notes: Single-chain fusion with two IL-22 domains, expressed in ExpiCHO cells
# B6: mIL-22-anti-HSA A4 (other)
# chain: LPVNTRCKLEVSNFQQPYIVNRTFMLAKEASLADNNTDVRLIGEKLFRGVSAKDQCYLMKQVLNFTLEDVLLPQSDRFQPYMQEVVPFLTKLSNQLSSCHISGDDQNIQKNVRRLKETVKKLGESGEIKAIGELDLLFMSLRNACVSGGGGSGGGGSGGGGSQVQLVESGGGVVQPGGSLRLSCAASGFAFRGFGMSWVRQAPGKGLEWVSSINNGGSDTYYADSVKGRFTISRDNSKNTLYLQMNSLRAEDTAVYYCAIGGPGASPSGQGTQVTVSS
# notes: as for B3
# B7: mIL-22-hIgG1 Fc B1 (Fc fusion)
# chain: LPVNTRCKLEVSNFQQPYIVNRTFMLAKEASLADNNTDVRLIGEKLFRGVSAKDQCYLMKQVLNFTLEDVLLPQSDRFQPYMQEVVPFLTKLSNQLSSCHISGDDQNIQKNVRRLKETVKKLGESGEIKAIGELDLLFMSLRNACVARGPTIKPCPPCKCPAPNLLGGPSVFIFPPKIKDVLMISLSPIVTCVVVDVSEDDPDVQISWFVNNVEVHTAQTQTHREDYNSTLRVVSALPIQHQDWMSGKEFKCKVNNKDLPAPIERTISKPKGSVRAPQVYVLPPPEEEMTKKQVTLTCMVTDFMPEDIYVEWTNNGKTELNYKNTEPVLDSDGSYFMYSKLRVEKKNWVERNSYSCSVVHEGLHNHHTTKSFSRTPGK
# Target: endogenous IL-22 receptor on AsPC-1 cells (UniProt Q8N6P7)
# Assay: cell-based or functional assay
row,Molecule,EC50 of STAT3 phosphorylation (phospho-STAT3 Tyr705 HTRF) in AsPC-1 cells [nM]
1,recombinant human IL-22 (from UniProt Q9GZX6 34-179) (ligand),90

# Target: T1, endogenous IL-22 receptor on AsPC-1 …
# Assay: cell-based or functional assay
row,Molecule,EC50 of STAT3 phosphorylation (phospho-STAT3 Tyr705 HTRF) in AsPC-1 cells [nM]
1,B1,500
2,B2,800
3,B3,500
4,B4,700
5,B5,500
6,B6,600

# Target: T2, mIL22RA1-Fc fusion protein
# Assay: BLI (Octet RED96); mIL22RA1-Fc captured on AHC biosensor, fusion protein in solution at 400 nM, global fit
# Procedure: OCTET® RED96 was used to characterize the interactions of an IL-22 fusion protein with a mouse IL-22Ra 1 (mIL22RA1). Briefly, an mIL22RA1-Fc fusion protein was loaded onto an anti-human IgG Fc capture (AHC) biosensor. The biosensor was then dipped into a solution containing the IL-22 fusion protein at 400 nM. Primary experimental data was analyzed with global fitting to determine a dissociation constant (Kd).
row,Molecule,Kd [nM]
1,B1,1.2
2,B7,1.4
3,B2,300
4,B3,30
5,B4,61
6,B5,0.77
7,B6,67
